Results taken from patent US20180311371A1 (Hoffmann-La Roche, published 2018).

B1: 091 Fab coupled to PE24 (LR8M) via sortase coupling (Fab)
heavy: EVHLLESGGGLVHPGGSLRLSCAASGFTFRSDAMHWVRQAPGKGLEWVSGVSGSGGSPYYADSVKGRFTISRDDSKTTLYLQMNSLRAEDTAVYYCATGGSIAGSYYYYPMDVWGQGTTVTVSSASTKGPSVFPLAPSSKSTSGGTAALGCLVKDYFPEPVTVSWNSGALTSGVHTFPAVLQSSGLYSLSSVVTVPSSSLGTQTYICNVNHKPSNTKVDKKVEPKSCGGGSLPETGGGRHRQPRGWEQLYPTGAEFLGDGGAVSFSTRGTQNWTVERLLQAHRQLEEGGYVFVGYHGTFLEAAQSIVFGGVRARSQDLDAIWAGFYIAGDPALAYGYAQDQEPDAAGRIRNGALLRVYVPRSSLPGFYATSLTLAAPEAAGEVERLIGHPLPLRLDAITGPEESGGRLETILGWPLAERTVVIPSAIPTDPRNVGGDLDPSSIPDSEAAISALPDYASQPGKPPREDL
light: not shown
B2: 051 Fab coupled to PE24 (LR8M) via sortase coupling (Fab)
heavy: EVQLLESGGGLLQPGGSLRLSCAASGFTFSIYWMTWVRQAPGKGLEWVSAISGSGGSTYYADSVKGRFTISRDNSKNTLYLQMNSLRAEDTAVYYCAKDYYSNVYWGQGTLVTVSSASTKGPSVFPLAPSSKSTSGGTAALGCLVKDYFPEPVTVSWNSGALTSGVHTFPAVLQSSGLYSLSSVVTVPSSSLGTQTYICNVNHKPSNTKVDKKVEPKSCGGGSLPETGGGRHRQPRGWEQLYPTGAEFLGDGGAVSFSTRGTQNWTVERLLQAHRQLEEGGYVFVGYHGTFLEAAQSIVFGGVRARSQDLDAIWAGFYIAGDPALAYGYAQDQEPDAAGRIRNGALLRVYVPRSSLPGFYATSLTLAAPEAAGEVERLIGHPLPLRLDAITGPEESGGRLETILGWPLAERTVVIPSAIPTDPRNVGGDLDPSSIPDSEAAISALPDYASQPGKPPREDL
light: DIQMTQSPSSVSASVGDRVTITCRASQGIYSWLAWYQQKPGKAPKLLIYAASSLQSGVPSRFSGSGSGTDFTLTISSLQPEDFATYYCQQSDSPPYTFGQGTKLEIKRTVAAPSVFIFPPSDEQLKSGTASVVCLLNNFYPREAKVQWKVDNALQSGNSQESVTEQDSKDSTYSLSSTLTLSKADYEKHKVYACEVTHQGLSSPVTKSFNRGEC
B3: 097 Fab coupled to PE24 (LR8M) via sortase coupling (Fab)
heavy: EVQLLESGGGLAQPGGSLRLSCAASGFTFNNDAMTWVRQAPGKGLEWVSAISGSGGSTYYADSVKGRFTISRDNSKNTLYLQMNSLRAEDTAVYYCAKGGSWGDWYYYFYPMDVWGQGTTVTVSSASTKGPSVFPLAPSSKSTSGGTAALGCLVKDYFPEPVTVSWNSGALTSGVHTFPAVLQSSGLYSLSSVVTVPSSSLGTQTYICNVNHKPSNTKVDKKVEPKSCGGGSLPETGGGRHRQPRGWEQLYPTGAEFLGDGGAVSFSTRGTQNWTVERLLQAHRQLEEGGYVFVGYHGTFLEAAQSIVFGGVRARSQDLDAIWAGFYIAGDPALAYGYAQDQEPDAAGRIRNGALLRVYVPRSSLPGFYATSLTLAAPEAAGEVERLIGHPLPLRLDAITGPEESGGRLETILGWPLAERTVVIPSAIPTDPRNVGGDLDPSSIPDSEAAISALPDYASQPGKPPREDL
light: not shown
B4: H8 Fab coupled to PE24 (LR8M) via sortase coupling (Fab, V domains shown)
VH: EVQLQQSGPDLVKPGASVKISCKASGYSFTGYYMHWVKQSHGKSLEWIGRINPNNGVTLYNQKFKDKAILTVDKSSTTAYMELRSLTSEDSAVYYCARSTMITNYVMDYWGQVTSVTVSS
VL: SIVMTQTPTFLLVSAGDRVTITCKASQSVSNDVAWYQQKPGQSPTLLISYTSSRYAGVPDRFIGSGYGTDFTFTISTLQAEDLAVYFCQQDYNSPPTFGGGTKLEIKR

Key:
[1] = target: T1, human TPBG (trophoblast glycoprotein), full length, cell surface expressed (human, UniProt Q13641 32-420); assay: cell-based or functional assay
T1 sequence: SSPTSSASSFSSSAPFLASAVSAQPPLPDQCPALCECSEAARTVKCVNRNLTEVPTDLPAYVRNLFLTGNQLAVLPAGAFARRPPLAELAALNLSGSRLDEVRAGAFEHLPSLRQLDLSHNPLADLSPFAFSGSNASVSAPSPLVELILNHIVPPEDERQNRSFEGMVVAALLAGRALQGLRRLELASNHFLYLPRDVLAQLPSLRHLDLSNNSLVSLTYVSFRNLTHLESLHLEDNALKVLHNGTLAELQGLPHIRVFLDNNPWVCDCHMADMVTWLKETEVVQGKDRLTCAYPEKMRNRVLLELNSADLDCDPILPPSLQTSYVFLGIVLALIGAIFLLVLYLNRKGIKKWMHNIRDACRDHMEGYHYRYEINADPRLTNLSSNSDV

[2] = target: T1, human TPBG (trophoblast glycoprotein), …

Binder | EC50 cytotoxicity, sortase-coupled Fab-PE, MCF7 [1] | X-fold higher potency compared to TPBG(H8)PE, MCF7 [1] | EC50 [2]
B1 | 0.033 nM | 1.8 fold | 0.61 nM
B2 | 0.036 nM | 1.7 fold | 0.67 nM
B3 | 0.054 nM | 1.1 fold | 0.63 nM
B4 | 0.059 nM |  | 1.56 nM
